Results: paper PMC4041446, “Eukaryotic and archaeal TBP and TFB/TF(II)B follow different promoter DNA bending pathways”

How the values were obtained:
[1] = target: SaTBP;SaTFB (TFB1) (Sulfolobus acidocaldarius;Sulfolobus acidocaldarius) (UniProt Q9UWN7); experiment: smFRET titration (confocal); settings: smFRET: N70 buffer (Mj) or N65 buffer (Sa), compositions in Table 1 not in the material, Sa EMSA: 10 mM MOPS pH 6.5, 180 mM NaCl, 20 mM KOAc, 11 mM MgCl2, 10% …
[2] = target: SaTBP;SaTFB (TFB1) (Sulfolobus acidocaldarius;Sulfolobus acidocaldarius) (UniProt Q9UWN7); experiment: smFRET; settings: smFRET: N70 buffer (Mj) or N65 buffer (Sa), compositions in Table 1 not in the material, Sa EMSA: 10 mM MOPS pH 6.5, 180 mM NaCl, 20 mM KOAc, 11 mM MgCl2, 10% …
[3] = target: T1, MjTBP;MjTFB (Methanocaldococcus jannaschii;Methanocaldococcus jannaschii) (UniProt Q57930+Q58192+Q58192); experiment: smFRET; settings: MjTBP + MjTFB; smFRET: N70 buffer (Mj) or N65 buffer (Sa), compositions in Table 1 not in the material; Sa EMSA: 10 mM MOPS pH 6.5, 180 mM NaCl, 20 mM KOAc, 11 mM MgCl2, 10% …
T1 sequence 1: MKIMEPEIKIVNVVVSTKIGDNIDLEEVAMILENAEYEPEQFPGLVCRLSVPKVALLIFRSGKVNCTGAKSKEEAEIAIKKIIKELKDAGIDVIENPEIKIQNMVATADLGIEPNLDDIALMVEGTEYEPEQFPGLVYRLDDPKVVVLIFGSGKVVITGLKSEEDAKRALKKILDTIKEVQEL
T1 sequence 2: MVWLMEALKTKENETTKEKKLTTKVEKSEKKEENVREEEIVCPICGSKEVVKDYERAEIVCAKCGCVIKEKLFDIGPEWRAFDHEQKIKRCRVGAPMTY
T1 sequence 3: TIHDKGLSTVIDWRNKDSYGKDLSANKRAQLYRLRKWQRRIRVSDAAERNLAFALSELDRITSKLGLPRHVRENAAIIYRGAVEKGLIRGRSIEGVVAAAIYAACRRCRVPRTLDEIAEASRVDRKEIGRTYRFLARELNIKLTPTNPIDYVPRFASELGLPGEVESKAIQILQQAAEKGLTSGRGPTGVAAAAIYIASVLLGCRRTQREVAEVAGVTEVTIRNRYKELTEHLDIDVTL

MjTBP = target: T2, MjTBP (Methanocaldococcus jannaschii, UniProt Q57930 1-183); experiment: smFRET titration (confocal); smFRET: N70 buffer (Mj) or N65 buffer (Sa), compositions in Table 1 not in the material; Sa EMSA: 10 mM MOPS pH 6.5, 180 mM NaCl, 20 mM KOAc, 11 mM MgCl2, 10% glycerol, 5 mM DTT, 1 ug BSA, 100 ug/ml heparin, 65 C 5 min; settings: protein: recombinant; label: Cy3B or ATTO532 donor, ATTO647n acceptor
T2 sequence: T1 sequence 1

ScTBP = target: T3, ScTBP (Saccharomyces cerevisiae, UniProt P13393 1-240); experiment: as above; settings: protein: recombinant; label: donor and ATTO647n acceptor
T3 sequence: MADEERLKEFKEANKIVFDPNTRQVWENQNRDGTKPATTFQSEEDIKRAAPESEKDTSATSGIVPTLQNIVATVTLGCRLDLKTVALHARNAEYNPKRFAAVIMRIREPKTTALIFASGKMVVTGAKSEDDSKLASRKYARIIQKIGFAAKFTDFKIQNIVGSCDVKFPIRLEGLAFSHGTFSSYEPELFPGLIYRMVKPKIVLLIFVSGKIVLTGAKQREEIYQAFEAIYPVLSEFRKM

ScTBP;ScTF(II)B = target: T4, ScTBP;ScTF(II)B (Saccharomyces cerevisiae;Saccharomyces …, UniProt P13393;P29055 1-240;1-345, |); experiment: smFRET; TF(II)B stabilizes fully bent state; smFRET: N70 buffer (Mj) or N65 buffer (Sa), compositions in Table 1 not in the material; Sa EMSA: 10 mM MOPS pH 6.5, 180 mM NaCl, 20 mM KOAc, 11 mM MgCl2, 10% glycerol, 5 mM DTT, 1 ug BSA, 100 ug/ml heparin, 65 C 5 min; settings: protein: recombinant;recombinant; tags: ;; copies: 1;1; label: donor and ATTO647n acceptor
T4 sequence 1: T3 sequence
T4 sequence 2: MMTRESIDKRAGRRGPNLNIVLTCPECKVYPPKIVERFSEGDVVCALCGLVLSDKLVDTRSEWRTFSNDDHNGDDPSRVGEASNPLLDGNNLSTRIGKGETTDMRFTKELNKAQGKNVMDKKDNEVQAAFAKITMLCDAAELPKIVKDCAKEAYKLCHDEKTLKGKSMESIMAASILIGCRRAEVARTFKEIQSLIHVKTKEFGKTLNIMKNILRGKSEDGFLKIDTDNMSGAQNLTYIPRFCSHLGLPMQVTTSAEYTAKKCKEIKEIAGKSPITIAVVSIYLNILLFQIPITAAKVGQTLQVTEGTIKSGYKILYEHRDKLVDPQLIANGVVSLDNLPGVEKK

SaTBP;SaTFB (TFB1) (Sulfolobus acidocaldarius;Sulfolobus acidocaldarius), sequence (Q9UWN7 whole entry, looked up): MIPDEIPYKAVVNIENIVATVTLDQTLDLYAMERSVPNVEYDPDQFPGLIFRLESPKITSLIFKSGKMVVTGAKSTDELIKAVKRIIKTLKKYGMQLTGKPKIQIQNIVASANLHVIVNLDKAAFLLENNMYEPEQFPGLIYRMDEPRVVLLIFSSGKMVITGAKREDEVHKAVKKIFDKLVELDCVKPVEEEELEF

Molecule “CGGACCGAAAGCGCGACCATCGCCGGAGATTGGAGTAAAGTTTAAATACTG (double strand) [DNASSV (SSV T6 promoter)]” has a Kd ([1]; SaTBP titrated, SaTFB 3 uM (Fig S7) or 2 uM) of 0.93 µM, a Kd ([1]; SaTFB titrated, 14 uM SaTBP) of 0.363 µM and a binding signal (% high FRET population) ([2]; 6 uM SaTBP, 5 uM SaTFB) of 92.

Molecule DNASSV-BRE has a binding signal (% high FRET population) ([2]; SaTBP + SaTFB, main text says no second population) of 29 and a binding signal (% high FRET population) [3] of 62.

B1: DNASSV (SSV T6 promoter) (dsDNA)
DNA 1: CGGACCGAAAGCGCGACCATCGCCGGAGATTGGAGTAAAGTTTAAATACTG
DNA 2: CAGTATTTAAACTTTACTCCAATCTCCGGCGATGGTCGCGCTTTCGGTCCG
With B1 the Kd (MjTBP) was 0.048 ± 0.006 µM.

B2: DNAH2B (H2B promoter) (dsDNA)
DNA 1: CTTCACCTTATTTGCATAAGCGATTCTATATAAAAGCGCCTCGCTCTACCCTGCTCACGCTGTTTTTCCTTTTCGTTGGC
DNA 2: GCCAACGAAAAGGAAAAACAGCGTGAGCAGGGTAGAGCGAGGCGCTTTTATATAGAATCGCTTATGCAAATAAGGTGAAG
In the case of B2, the Kd (ScTBP) is reported as 0.0042 ± 0.0012 µM and the binding result (ScTBP;ScTF(II)B) is reported as “binds”.
